The values that follow come from paper PMC4987126 (Molecular immunology, 2016).

In this assay the target is T1, synthetic peptide of the C1q A chain, residues 14–26 (collagen region).
T1 peptide: AGRPGRRGRPGLK
Nature of the assay: ELISA.

B1: gp41-3S, 17-residue synthetic peptide corresponding to the 3S motif of gp41 (peptide)
peptide: PWNASWSNKSLDDIWNC
Turning to B1, the binding result is “binds”.
